Laboratory results: publication PMC13234300, “De novo and scaffold-based design of GDF15 binders for cancer cachexia diagnostics and therapeutics” (Experimental & Molecular Medicine, 2026)

Key:
[1] = target: recombinant mature human GDF15 dimer, N-glyco-engineered variant (R198N and G200T), Twin-Strep tagged (human) (UniProt Q99988); assay: SPR
[2] = target: T1, recombinant mature human GDF15 dimer, N-glyco-engineered variant (R198N and G200T), Twin-Strep tagged (human, UniProt Q99988 198-308, R198N | G200T); assay: SPR; Biacore T200; GDF15 dimer immobilised on CM5 chip by amine coupling; HBS-EP+; analyte 5-50 nM in the figure; 1:1 binding model; apparent (avidity of the Fc dimer); details: both partners purified
T1 construct: mature human GDF15, residues 198–308, N-glyco-engineered variant (R198N and G200T); no cleavage step is described (eluted with desthiobiotin, then SEC); also called Twin-Strep-GDF15 dimer; growth differentiation factor-15; source: Expi293F, transfected, purified from supernatant (Strep-Tactin-XT, SEC)
T1 sequence (looked up): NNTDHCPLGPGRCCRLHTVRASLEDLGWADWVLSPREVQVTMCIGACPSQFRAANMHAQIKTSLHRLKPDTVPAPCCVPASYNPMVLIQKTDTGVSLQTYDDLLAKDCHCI

[3] = target: T2, recombinant mature human GDF15 dimer, N-glyco-engineered variant (R198N and G200T), Twin-Strep tagged (human, UniProt Q99988 198-308, R198N | G200T); assay: SPR
T2 sequence: T1 sequence (looked up)

[4] = target: T1, recombinant mature human GDF15 dimer, …; assay: SPR; Biacore T200; GDF15 dimer immobilised on CM5 chip by amine coupling (10 mM sodium acetate, pH 5.5); HBS-EP+ (0.01 M HEPES pH 7.4, 0.15 M NaCl, 3 mM EDTA, 0.05% P20); analytes 5-100 nM, 300 s association, 300 s dissociation, 30 μl/min; two-state reaction model; details: both partners purified

Molecule: ponsegromab
- Kd [1]: 0.0802 nM
- koff [1]: 2.24e-05 s⁻¹

B1: SGA2-4-Fc (Fc-fused SGA2-4 binder, homodimeric decoy receptor) (Fc fusion)
chain: VTVFEALDAIIADPQSNAALAAHLKAVAALPADATKAQVDAIYDAFLAQLPAEVRAKVLAAKPDPTNPDEIQLYNQLRGYDKL
modifications: Homodimer through a C-terminal human IgG Fc (isotype and limits not given). The Fc, thrombin site and 6xHis tag are left out; the Fc only provides bivalency/avidity. Expressed in mammalian cells.
- Kd [2]: 0.081 nM
- koff [3]: 7.16e-05 s⁻¹

B2: human GFRAL D2 domain (residues 115–217) (domain or fragment, UniProt Q6UXV0 115-217, looked up)
chain: WNLTTRSHHGFKGMWSCLEVAEACVGDVVCNAQLASYLKACSANGNPCDLKQCQAAIRFFYQNIPFNIAQMLAFCDCAQSDIPCQQSKEALHSKTCAVNMVPP
notes: human GFRAL (glial cell-derived neurotrophic factor family receptor alpha-like), D2 domain, residues 115–217; the expressed construct as residues 115–217; also called hGFRAL D2; initial scaffold; source: Expi293F, transfected, purified (protein A, on-resin thrombin cleavage, SEC); not shown: Fc, C-terminal, cleaved
- Kd [4]: 90.4 nM
